# Reference: the DeepSol protein solubility set
# Test: soluble on expression in E. coli; label from the status in PepcDB or PDB records
row,Sequence,soluble on expression in E. coli
1,MLLAYIDEIGSTGAFIHPNHNRFSDSPAFGYGGFIIPEESAREFGSYFAERKKIFFRNEIPNNIDPGRWEKKGSDLLFALAINERPQNLRLLGSLISKLRKLDGHLFYYAEEKPIGTPKATNCGATEFRDREETAMRETLNRIARHADYEDSRVLVMMDQINEKSRIQRLPAMYAHILGRASEHQEMRRIVEPPMHIDSQLSTNIQFADWICSLAKRAIEYQLVEDSRYSWVSTAEALTPARGSFTYESKLRLYHRAIDDLNHSSILRPTRPLFNSKINQTLDEENRRKLEKVRAATIKEANN,not soluble
2,MSSNENSDDVPEQRQIVRRSRVYNPRDPSSPEPPYDPYPPGIHAQAGCATRPISAHIVPQALIEPIRLHREEDELAGTSSCRPVPQCDFNLESDRWEEDQLENPQIKSQWKGSETRPVANFARRQQRVLRTDWKHVDVQITVWEELKKVLEAAEIVDVTLNMMKTLNPDTKAMWLLKFHTTSLTEYLEDFESRAEYFNEMLLELDGIHPDLFTECSNYISQLKDVTHSRELQAVQVHLPKAVKNSDAQKVRFYLQLAGEAKKDIAVVLNNNKVKTLLIDNGFTL,not soluble
3,MEDKKDALISKTISMLLDNGFAVADISGQFSASFDIIARRNIERYVLKVLYNIDTLKPTTAYQLAKVAKFLRSTATIVGEKAGGGPLEDGVIYYRHGIPISSLDTFRDYINGEKPYIYSGPGGFYVKINGEALREMRMKMSLSIGYLSHYLGVSRRSVSLYENGSSATIDVFLKLQEIIKSDLVDHTDLFKIIPDNFQEEERVDDVYIQMLLDILERIGLDTKPAYRMPFDILARDEEVVSLIASLLSEEADKTKIEIMKKISSVLEDDAFLISKHSTTRENINGCPVINIVDLEKMTSKDELLRMLEKRAR,not soluble
4,MQREKVDVLVIGAGPAGTVAASLVNKSGFKVKIVEKQKFPRFVIGESLLPRCMEHLDEAGFLDAVKAQGFQQKFGAKFVRGKEIADFNFSDQFSNGWNWTWQVPRGNFDKTLADEAARQGVDVEYEVGVTDIKFFGTDSVTTIEDINGNKREIEARFIIDASGYGRVIPRMFGLDKPSGFESRRTLFTHIKDVKRPVAAEMEGNRITAVVHKPKVWIWVIPFSNGNTSVGFVGEPSYFDEYTGTPEERMRAMIANEGHIAERFKSEEFLFEPRTIEGYAISASKLYGDGFVLTGNATEFLDPIFSSGATFAMESGSKGGKLAVQFLKGEEVNWEKDFVEHMMQGIDTFRSFVTGWYDGTLHAVFFAKNPDPDHKRMICSVLAGYVWDKNNPFVKKHNTILKTLAKVIQMGEEALEHHHHHH,soluble
5,MTDRYTIHSQLEHLQSKYIGTGHADTTKWEWLVNQHRDSYCSYMGHFDLLNYFAIAENESKARVRFNLMEKMLQPCGPPADKPEEN,soluble
6,MPLIRNYDYYDLLNVAPSTSAHRPTVMVTSSRSYMEPQKSRIYYGKNEWRGGNTTIHDPTEFEETTMDKNANEIAGDDKRKKKRWRDLLFPNSRHSSRKDKENSNVSVATRSLSSVSFRSEKPSRRRESGSLSRHRYIPPPPLPMPPRRIMTSTSMGYSDDAMTSSSSHTTTDYDDIVPVPTPSYVIYPAASIAQASRRQQQGSAKNRIFRSPTYHHDAFVNSHEWTLSRSISEMKLGIVGTSQSGKTALVHRYLTGTYTPDESPEGGRFKKEVVIEGQSHLLLIRDEGQQHLDVQFCQWVDAVVFVFNVCSIQSYDSIQALAHEMSKYRNISDLPLILVGTKDHISEKRARVITEDEGRQLAAQMKRCSYFETSSTYGTNVERVFKEACCKIIQLRVRSQVGAAAAASSQARTPTPTHSESGGRKDYQDPSRYISSNSFVMPSNMRPSFPSNSTRRNTVHHRGEHPQQQQYQQQPPSSSRTASERSMSAMLGTPYGNRMPAGVSPSASQKSVHSIANGCYSRSSAALLDSDTPAVNSYLIDSMSSAGFPLSQSGANQVSASTSHLPTPSSTPNTQRKNRRISNIFRQKDHQEEKSKMIESLNLGIGRAIPIKQGNLYKKSSKSALNREWKKKYVCLYSDGRLTYHTNLKEYMDKTAHGKEMDLKLATIRITGRLHPLHSHRVASSVDPMNGGGGGGTPTLKSYEPRRSDVGANSGDGTSGGGSDDAIKENQRQHFSPPAMPQTVAGKKKRESRKIGTNSKHNDEEDECFEVINNCLMRWEFCAGSLEERDEWIQAIGGEIEKSLGKEVANAKTNNRAVANRPDIAALRSIPGNGRCADCGNPSSEWASINLGIIICIECSGIHRNLGSHISKVRGLELDQWPVEHLAVMQAIGNDKANEMWEFGLLNGERKPTPESSREEKERFIDRKYVQKAFLKPIASGEPVTSQLISAVLARDVMSLNVLLANGMSVEEINTTTKDGRTVLHLAASIGSVELAQLLIWHNADAQILDNNGRSCLFYARSNGFREVFDMLVTAGLSPDYGLPQEINDFSQMPEFFAMGSTSNRDYSTSGDEMYGSRRISMGPPPQVPARRYLPQQPELDETSVI,not soluble
7,SLELKITDFKVFVAQANFEWAFVRIYSKDLYGTGEAGPAPGLKGMESEFIQLLIGEDAFKVNRIAEKLRYATLYSGTTVYHLISAINIALYDLIGKYLNVPIYKLLGGDKTEIPVYVDAHGGKGLEAINALHLPVNLPWIKEAEVETNRLITTNNPVHGRLSMEKWNEDYSPEAYAKRALKMKNEGYKAMKFDLDVPTPYIDLRRVRNGDLSLKDIDYMVDIVKAVRESVGDEVEIMFDLHWRYNLNTAIRICKALEPYRLRWLEDPMPAIMAVSNYDELKLLTSQCSVPIETGENLYTVYQFKDLLNTGVRVWAPDIVKAGGITEGRRIAELAAMYDIEYSPHNIASPIGTMAHAHVGSIANTFGFVEFHGHDVPFWNEIVKPKRKIIEDGVIKLTDDPGLGIDLDDEVMRKYWPTYEL,soluble
8,MTEMELKLIKIDTSHYFEKKPGLGERVDYAGRCFYNKFQRVNAMLTSSLIQKHLKREIEIAHNLILRNDKVENIVFDYNGRNPERFYHKAQLLLREEGFMNFTAYNTKTPGHLHLYVHKGHTELGEGERLVKTLSMKLAQGLPKEWKVFPSNEWPKEFNILALPYEVFAKERGSSWAKHL,soluble
9,MGSDKIHHHHHHMKIGIVGLGRVGSSTAFALLMKGFAREMVLIDVDKKRAEGDALDLIHGTPFTRRANIYAGDYADLKGSDVVIVAAGVPQKPGETRLQLLGRNARVMKEIARNVSKYAPDSIVIVVTNPVDVLTYFFLKESGMDPRKVFGSGTVLDTARLRTLIAQHCGFSPRSVHVYVIGEHGDSEVPVWSGAMIGGIPLQNMCQICQKCDSKILENFAEKTKRAAYEIIERKGATHYAIALAVADIVESIFFDEKRVLTLSVYLEDYLGVKDLCISVPVTLGKHGVERILELNLNEEELEAFRKSASILKNAINEITAEENKHQNTSG,not soluble
10,MEKYQVKFMPDQQVIEVEKGTSLLKAASQAGIFIKSSCGGKGTCGACKVTVISGEAKSERTGNLSPEQLSRGVRLSCHTFVEGDLTVEVPPESRLQAHQVLLENANAALLTETSKDLLTYYGYHPLARKVNIRCSEPTLTDNAGDWARLSLELKRVLQSDKPLTIPLSVLQTLPETLRQAHWDLSVILTDLELGYTVLHVEPANDRPCYGLAIDVGTTTVVVYLVDLDSGEIVDKQGSYNKQAQFGDDVISRIVYAVDSKENMAEIQKAVVDTVNALIDGILERQSLTSQDIASAVIAGNTTMSQLFLGINPRYIRLEPYIPTVNSTPAVSAREIGLRLLPEALIHTYPSVASYVGGDIVSGALATDMANSDEIILFIDIGTNGEIVLGNKDWLVSCACSAGPCFEGGGILFGMRAMPGAIERVDIDPESLDVKLKVVGKIAPVGICGSGLVDCLAKLRKAGIIDRAGNFQLEHPSQSARIRATEDDKEFVLAWAHQAGGDKDIVISENDVKNLIRAKGAIYAGIRSLLQTVALEIDMIERIVIGGGFGNYLNVHDSVEIGLLPDLPQEKFEFIGNSSVKGARLALLSQKAWNEAADLARKMTYIELSIGTTFMDEFVSALFLPHTDLSLFPSVEGTFLEHHHHHH,soluble
11,MGSDKIHHHHHHMAPMKIGLILEGTYPYVTGGVSNWVHTLLTNLPEFEFEIYHLKAVTEPQTIKYKIPENVTAVHELNIFGDFESDSSQKANLESLERIVSQLSIERDIRSIVSFAIDFIRENAGKNVRKMLKTKGFWNILLKIYEEFFSERGLTEFYWMIMNLFLPVVNVLQFVPNRCDLFHVPSTGYASLVGMNGKFVHDVPLVITEHGIYHKEREREIILSTWVPDAYKPMWIELFRIISMIAYRVSDALTTLYRKNQIYQLELGADPEKMFIIPNGINVEEYDLPPEKHEGFVVGFVGRVARIKDLKTAIRAISIVKEVVGEKLTFLIIGPVDAEDYLAECKRLVRVLRLEDTVEFLGPQNVKEYYPKFDLLLLSSVSEGQPLVILEAMAAGVPIVATDVGACRDIIYDKDGQCGIVVPPKDHLSMSKAIIKLYEDKELRDTFSKNAKKVVQKYRVETMIEKYRNLYLSLTSKKTVSTV,not soluble
12,STNLRAWLYQGDHCLESRQSEAGVTRLNGKSPAAVLAEVTTDWREENTPVVMAGMVGSNVGWKVAPYLSVPARFSSIGEQLTSVGDNIWIIPGLCVSHDDNHNVMRGEETQLIGARALAPSSLYVMPGTHCKWVQADSQQINDFRTVMTGELHHLLLNHSLIGAGLPPQENSADAFAAGLERGLNAPAILPQLFEVRASHVLGTLPREQVSEFLSGLLIGAEVASMRDYVTHQHAITLVAGTSLTARYQQAFQAMGCDVAAVAGDTAFQAGIRSIAHAVAN,not soluble
13,MSLKLEAYRTLHCDAGWRRFSFLKLIAEDGTTGISEYNECYGSPGLTGVIEGVLEWIIGKNPFSHEKLSAELYARTRQAHGGIAQQAIAAVENALVDLKARSLGVPVYELLGGAVREELPLYWSHCGSYRLPRTAEMLGVPPITSLDDLVSLGKEVREKGFSALKTNIFLFEEQPHMHQPGFARSEGWPALNPERRIINSLKEQLAAFREGAGPELEILLDLNFNYRTEGFLTVCRALDDLGLGWFEMDLYDPAALARIRHALKTPVASCESLFGLRGFRPFFENQSMDVAIVDVPWNGIWQAMKIAGLAESFEVNVAPHNFYGHLSTLMSAHFCAAIPNFRIMEIDIDDVPWKDELVTKSPLIRDGILKIPEGIGWGTELNEEAIAAHPVKNTGDDRKYDRGMGEGHHHHHH,soluble
14,MPPYTVVYFPVRGRCAALRMLLADQGQSWKEEVVTVETWQEGSLKASCLYGQLPAFQDGDLTLYQSNTILRHLGRTLGLYGKDQQEAALVDMVNDGVEDLRCKYISLIYTNYEAGKDDYVKALPGQLKPFETLLSQNQGGKTFIVGDQISFADYNLLDLLLIHEVLAPGCLDAFPLLSAYVGRLSARPKLKAFLASPEYVNLPINGNGKQ,soluble
15,MTQKLHIKTWGCQMNEYDSSKMADLLLSTHGLELTEAPEEADVLLLNTCSIREKAQEKVFHQLGRWKELKKNNPNLVIGVGGCVASQEGEHIRHRAPYVDIIFGPQTLHRLPEMINQIRGGKSSVVDVSFPEIEKFDRLPEPRAEGPTAFVSIMEGCNKYCTFCVVPYTRGEEVSRPVDDVLFEIAQLAEQGVREVNLLGQNVNAYRGPTHDGQICSFAELLRLVASIDGIDRLRFTTSHPIEFTDDIIDVYRDTPELVSFLHLPVQAGSDRVLTMMKRAHTALEYKSIIRKLRAVRPDIQISSDFIVGFPGETAEDFEQTMNLIAQVNFDMSFSFVYSARPGTPAADMPDDVTEDEKKQRLYVLQERINQQAAQFSRRMLGTEQRVLVEGPSKKDIMELTGRTETNRIVNFQGSPEMIGKFVDVKITDVYTNSLRGEVVRTEDEMGLRIAQSPQEVMNRTRKEDELGVGRYHGLEHHHHHH,soluble
